# Assay results published in IntAct's records for PubMed 18278056.
# B1: Insulin receptor substrate 2 (Mus musculus), P81122 (parent)
# chain: MASAPLPGPPASAGGDGPNLNNNNNNNNHSVRKCGYLRKQKHGHKRFFVLRGPGTGGDEASAAGGSPPQPPRLEYYESEKKWRSKAGAPKRVIALDCCLNINKRADAKHKYLIALYTKDEYFAVAAENEQEQEGWYRALTDLVSEGRSGEGGSGTTGGSCSASLPGVLGGSAGAAGCDDNYGLVTPATAVYREVWQVNLKPKGLGQSKNLTGVYRLCLSARTIGFVKLNCEQPSVTLQLMNIRRCGHSDSFFFIEVGRSAVTGPGELWMQADDSVVAQNIHETILEAMKALKELFEFRPRSKSQSSGSSATHPISVPGARRHHHLVNLPPSQTGLVRRSRTDSLAATPPAAKCTSCRVRTASEGDGGAAGGAGTAGGRPMSVAGSPLSPGPVRAPLSRSHTLSAGCGGRPSKVTLAPAGGALQHSRSMSMPVAHSPPAATSPGSLSSSSGHGSGSYPLPPGSHPHLPHPLHHPQGQRPSSGSASASGSPSDPGFMSLDEYGSSPGDLRAFSSHRSNTPESIAETPPARDGSGGELYGYMSMDRPLSHCGRPYRRVSGDGAQDLDRGLRKRTYSLTTPARQRQVPQPSSASLDEYTLMRATFSGSSGRLCPSFPASSPKVAYNPYPEDYGDIEIGSHKSSSSNLGADDGYMPMTPGAALRSGGPNSCKSDDYMPMSPTSVSAPKQILQPRLAAALPPSGAAVPAPPSGVGRTFPVNGGGYKASSPAESSPEDSGYMRMWCGSKLSMENPDPKLLPNGDYLNMSPSEAGTAGTPPDFSAALRGGSEGLKGIPGHCYSSLPRSYKAPCSCSGDNDQYVLMSSPVGRILEEERLEPQATPGAGTFGAAGGSHTQPHHSAVPSSMRPSAIGGRPEGFLGQRCRAVRPTRLSLEGLQTLPSMQEYPLPTEPKSPGEYINIDFGEAGTRLSPPAPPLLASAASSSSLLSASSPASSLGSGTPGTSSDSRQRSPLSDYMNLDFSSPKSPKPSTRSGDTVGSMDGLLSPEASSPYPPLPPRPSTSPSSLQQPLPPAPGDLYRLPPASAATSQGPTAGSSMSSEPGDNGDYTEMAFGVAATPPQPIVAPPKPEGARVASPTSGLKRLSLMDQVSGVEAFLQVSQPPDPHRGAKVIRADPQGGRRRHSSETFSSTTTVTPVSPSFAHNSKRHNSASVENVSLRKSSEGSSTLGGGDEPPTSPGQAQPLVAVPPVPQARPWNPGQPGALIGCPGGSSSPMRRETSVGFQNGLNYIAIDVRGEQGSLAQSQPQPGDKNSWSRTRSLGGLLGTVGGSGASGVCGGPGTGALPSASTYASIDFLSHHLKEATVVKE
# Variants of: B1
# Conditions: with INSR
row,Variant,effect of a mutation on the interaction
1,Y628F,disrupting interaction
2,Y624A,disrupting interaction
3,G629A,disrupting interaction
4,I631A,disrupting interaction
5,D627A,disrupting interaction
6,Y621A,disrupting interaction
7,I633A,disrupting interaction

# Variants of: B1
# Conditions: with igf1r_human IGF1R
row,Variant,effect of a mutation on the interaction
1,Y628F,disrupting interaction
